Reference: US20230357348A1 (AstraZeneca / MedImmune, published 2023)
Starred links: 1 amine or outer side, 2 acyl side, 3 side chain; linkers in the order of their positions; H or OH if unused. Non-standard residues stand in square brackets, D forms with d. Groups on a side chain read outwards from the residue. No end group written: not given here. *: point of attachment. C20 diacid = O=C(O)CCCCCCCCCCCCCCCCCCC(=O)*; C18 diacid = O=C(O)CCCCCCCCCCCCCCCCC(=O)*; γGlu = O=C(O)[C@H](CCC(=O)[*:2])N[*:1]; αMeF = C[C@](N)(Cc1ccccc1)C(=O)O; AEEA = NCCOCCOCC(=O)O; Aib = CC(C)(N)C(=O)O

B1: Peptide 461 (peptide)
peptide: H[Aib]QGTFTSDVSK[αMeF]LDRK([AEEA-AEEA-γGlu-C18 diacid])RAQDFVRWLLAE-NH2
modifications: N-terminus assumed
SMILES: CC(C)C[C@H](NC(=O)[C@H](CC(C)C)NC(=O)[C@H](Cc1c[nH]c2ccccc12)NC(=O)[C@H](CCCNC(=N)N)NC(=O)[C@@H](NC(=O)[C@H](Cc1ccccc1)NC(=O)[C@H](CC(=O)O)NC(=O)[C@H](CCC(N)=O)NC(=O)[C@H](C)NC(=O)[C@H](CCCNC(=N)N)NC(=O)[C@H](CCCCNC(=O)COCCOCCNC(=O)COCCOCCNC(=O)CC[C@H](NC(=O)CCCCCCCCCCCCCCCCC(=O)O)C(=O)O)NC(=O)[C@H](CCCNC(=N)N)NC(=O)[C@H](CC(=O)O)NC(=O)[C@H](CC(C)C)NC(=O)[C@](C)(Cc1ccccc1)NC(=O)[C@H](CCCCN)NC(=O)[C@H](CO)NC(=O)[C@@H](NC(=O)[C@H](CC(=O)O)NC(=O)[C@H](CO)NC(=O)[C@@H](NC(=O)[C@H](Cc1ccccc1)NC(=O)[C@@H](NC(=O)CNC(=O)[C@H](CCC(N)=O)NC(=O)C(C)(C)NC(=O)[C@@H](N)Cc1c[nH]cn1)[C@@H](C)O)[C@@H](C)O)C(C)C)C(C)C)C(=O)N[C@@H](C)C(=O)N[C@@H](CCC(=O)O)C(N)=O
B2: Peptide 407 (peptide)
peptide: H[Aib]QGTFTSDVSK[αMeF]LDTK([AEEA-AEEA-γGlu-C20 diacid])RAQDFVRWLEA[Aib]G-OH
modifications: N-terminus assumed
SMILES: CC(C)C[C@H](NC(=O)[C@H](Cc1c[nH]c2ccccc12)NC(=O)[C@H](CCCNC(=N)N)NC(=O)[C@@H](NC(=O)[C@H](Cc1ccccc1)NC(=O)[C@H](CC(=O)O)NC(=O)[C@H](CCC(N)=O)NC(=O)[C@H](C)NC(=O)[C@H](CCCNC(=N)N)NC(=O)[C@H](CCCCNC(=O)COCCOCCNC(=O)COCCOCCNC(=O)CC[C@H](NC(=O)CCCCCCCCCCCCCCCCCCC(=O)O)C(=O)O)NC(=O)[C@@H](NC(=O)[C@H](CC(=O)O)NC(=O)[C@H](CC(C)C)NC(=O)[C@](C)(Cc1ccccc1)NC(=O)[C@H](CCCCN)NC(=O)[C@H](CO)NC(=O)[C@@H](NC(=O)[C@H](CC(=O)O)NC(=O)[C@H](CO)NC(=O)[C@@H](NC(=O)[C@H](Cc1ccccc1)NC(=O)[C@@H](NC(=O)CNC(=O)[C@H](CCC(N)=O)NC(=O)C(C)(C)NC(=O)[C@@H](N)Cc1c[nH]cn1)[C@@H](C)O)[C@@H](C)O)C(C)C)[C@@H](C)O)C(C)C)C(=O)N[C@@H](CCC(=O)O)C(=O)N[C@@H](C)C(=O)NC(C)(C)C(=O)NCC(=O)O
B3: Peptide 410 (peptide)
peptide: H[Aib]QGTFTSDVSK[αMeF]LDTK([AEEA-AEEA-γGlu-C20 diacid])RARDFVAWLL[Aib]TE-OH
modifications: N-terminus assumed
SMILES: CC(C)C[C@H](NC(=O)[C@H](Cc1c[nH]c2ccccc12)NC(=O)[C@H](C)NC(=O)[C@@H](NC(=O)[C@H](Cc1ccccc1)NC(=O)[C@H](CC(=O)O)NC(=O)[C@H](CCCNC(=N)N)NC(=O)[C@H](C)NC(=O)[C@H](CCCNC(=N)N)NC(=O)[C@H](CCCCNC(=O)COCCOCCNC(=O)COCCOCCNC(=O)CC[C@H](NC(=O)CCCCCCCCCCCCCCCCCCC(=O)O)C(=O)O)NC(=O)[C@@H](NC(=O)[C@H](CC(=O)O)NC(=O)[C@H](CC(C)C)NC(=O)[C@](C)(Cc1ccccc1)NC(=O)[C@H](CCCCN)NC(=O)[C@H](CO)NC(=O)[C@@H](NC(=O)[C@H](CC(=O)O)NC(=O)[C@H](CO)NC(=O)[C@@H](NC(=O)[C@H](Cc1ccccc1)NC(=O)[C@@H](NC(=O)CNC(=O)[C@H](CCC(N)=O)NC(=O)C(C)(C)NC(=O)[C@@H](N)Cc1c[nH]cn1)[C@@H](C)O)[C@@H](C)O)C(C)C)[C@@H](C)O)C(C)C)C(=O)N[C@@H](CC(C)C)C(=O)NC(C)(C)C(=O)N[C@H](C(=O)N[C@@H](CCC(=O)O)C(=O)O)[C@@H](C)O
B4: Peptide 408 (peptide)
peptide: H[Aib]QGTFTSDVSK[αMeF]LDTK([AEEA-AEEA-γGlu-γGlu-C20 diacid])RAQDFVRWLEA[Aib]G-OH
modifications: N-terminus assumed
SMILES: CC(C)C[C@H](NC(=O)[C@H](Cc1c[nH]c2ccccc12)NC(=O)[C@H](CCCNC(=N)N)NC(=O)[C@@H](NC(=O)[C@H](Cc1ccccc1)NC(=O)[C@H](CC(=O)O)NC(=O)[C@H](CCC(N)=O)NC(=O)[C@H](C)NC(=O)[C@H](CCCNC(=N)N)NC(=O)[C@H](CCCCNC(=O)COCCOCCNC(=O)COCCOCCNC(=O)CC[C@H](NC(=O)CC[C@H](NC(=O)CCCCCCCCCCCCCCCCCCC(=O)O)C(=O)O)C(=O)O)NC(=O)[C@@H](NC(=O)[C@H](CC(=O)O)NC(=O)[C@H](CC(C)C)NC(=O)[C@](C)(Cc1ccccc1)NC(=O)[C@H](CCCCN)NC(=O)[C@H](CO)NC(=O)[C@@H](NC(=O)[C@H](CC(=O)O)NC(=O)[C@H](CO)NC(=O)[C@@H](NC(=O)[C@H](Cc1ccccc1)NC(=O)[C@@H](NC(=O)CNC(=O)[C@H](CCC(N)=O)NC(=O)C(C)(C)NC(=O)[C@@H](N)Cc1c[nH]cn1)[C@@H](C)O)[C@@H](C)O)C(C)C)[C@@H](C)O)C(C)C)C(=O)N[C@@H](CCC(=O)O)C(=O)N[C@@H](C)C(=O)NC(C)(C)C(=O)NCC(=O)O
B5: Peptide 463 (peptide)
peptide: H[Aib]QGTFTSDVSK[αMeF]LDSK([AEEA-AEEA-γGlu-γGlu-C18 diacid])RAQDFVQWLL[Aib]T-NH2
modifications: N-terminus assumed
SMILES: CC(C)C[C@H](NC(=O)[C@H](Cc1c[nH]c2ccccc12)NC(=O)[C@H](CCC(N)=O)NC(=O)[C@@H](NC(=O)[C@H](Cc1ccccc1)NC(=O)[C@H](CC(=O)O)NC(=O)[C@H](CCC(N)=O)NC(=O)[C@H](C)NC(=O)[C@H](CCCNC(=N)N)NC(=O)[C@H](CCCCNC(=O)COCCOCCNC(=O)COCCOCCNC(=O)CC[C@H](NC(=O)CC[C@H](NC(=O)CCCCCCCCCCCCCCCCC(=O)O)C(=O)O)C(=O)O)NC(=O)[C@H](CO)NC(=O)[C@H](CC(=O)O)NC(=O)[C@H](CC(C)C)NC(=O)[C@](C)(Cc1ccccc1)NC(=O)[C@H](CCCCN)NC(=O)[C@H](CO)NC(=O)[C@@H](NC(=O)[C@H](CC(=O)O)NC(=O)[C@H](CO)NC(=O)[C@@H](NC(=O)[C@H](Cc1ccccc1)NC(=O)[C@@H](NC(=O)CNC(=O)[C@H](CCC(N)=O)NC(=O)C(C)(C)NC(=O)[C@@H](N)Cc1c[nH]cn1)[C@@H](C)O)[C@@H](C)O)C(C)C)C(C)C)C(=O)N[C@@H](CC(C)C)C(=O)NC(C)(C)C(=O)N[C@H](C(N)=O)[C@@H](C)O
B6: Peptide 409 (peptide)
peptide: H[Aib]QGTFTSDVSK[αMeF]LDTK([AEEA-AEEA-γGlu-C18 diacid])RARDFVAWLL[Aib]TE-OH
modifications: N-terminus assumed
SMILES: CC(C)C[C@H](NC(=O)[C@H](Cc1c[nH]c2ccccc12)NC(=O)[C@H](C)NC(=O)[C@@H](NC(=O)[C@H](Cc1ccccc1)NC(=O)[C@H](CC(=O)O)NC(=O)[C@H](CCCNC(=N)N)NC(=O)[C@H](C)NC(=O)[C@H](CCCNC(=N)N)NC(=O)[C@H](CCCCNC(=O)COCCOCCNC(=O)COCCOCCNC(=O)CC[C@H](NC(=O)CCCCCCCCCCCCCCCCC(=O)O)C(=O)O)NC(=O)[C@@H](NC(=O)[C@H](CC(=O)O)NC(=O)[C@H](CC(C)C)NC(=O)[C@](C)(Cc1ccccc1)NC(=O)[C@H](CCCCN)NC(=O)[C@H](CO)NC(=O)[C@@H](NC(=O)[C@H](CC(=O)O)NC(=O)[C@H](CO)NC(=O)[C@@H](NC(=O)[C@H](Cc1ccccc1)NC(=O)[C@@H](NC(=O)CNC(=O)[C@H](CCC(N)=O)NC(=O)C(C)(C)NC(=O)[C@@H](N)Cc1c[nH]cn1)[C@@H](C)O)[C@@H](C)O)C(C)C)[C@@H](C)O)C(C)C)C(=O)N[C@@H](CC(C)C)C(=O)NC(C)(C)C(=O)N[C@H](C(=O)N[C@@H](CCC(=O)O)C(=O)O)[C@@H](C)O
B7: Peptide 140 (peptide)
peptide: H[Aib]QGTFTSDVSK[αMeF]LDTK([AEEA-AEEA-γGlu-C18 diacid])RAQDFVRWLLE[Aib]G-OH
modifications: N-terminus assumed
SMILES: CC(C)C[C@H](NC(=O)[C@H](Cc1c[nH]c2ccccc12)NC(=O)[C@H](CCCNC(=N)N)NC(=O)[C@@H](NC(=O)[C@H](Cc1ccccc1)NC(=O)[C@H](CC(=O)O)NC(=O)[C@H](CCC(N)=O)NC(=O)[C@H](C)NC(=O)[C@H](CCCNC(=N)N)NC(=O)[C@H](CCCCNC(=O)COCCOCCNC(=O)COCCOCCNC(=O)CC[C@H](NC(=O)CCCCCCCCCCCCCCCCC(=O)O)C(=O)O)NC(=O)[C@@H](NC(=O)[C@H](CC(=O)O)NC(=O)[C@H](CC(C)C)NC(=O)[C@](C)(Cc1ccccc1)NC(=O)[C@H](CCCCN)NC(=O)[C@H](CO)NC(=O)[C@@H](NC(=O)[C@H](CC(=O)O)NC(=O)[C@H](CO)NC(=O)[C@@H](NC(=O)[C@H](Cc1ccccc1)NC(=O)[C@@H](NC(=O)CNC(=O)[C@H](CCC(N)=O)NC(=O)C(C)(C)NC(=O)[C@@H](N)Cc1c[nH]cn1)[C@@H](C)O)[C@@H](C)O)C(C)C)[C@@H](C)O)C(C)C)C(=O)N[C@@H](CC(C)C)C(=O)N[C@@H](CCC(=O)O)C(=O)NC(C)(C)C(=O)NCC(=O)O

Columns and labels:
[1] = molecular target: human GLP-1 receptor (hGLP-1R) (human, UniProt P43220 24-463); assay: cell-based or functional assay
[2] = molecular target: human glucagon receptor (hGCGR) (human, UniProt P47871 26-477); assay: cell-based or functional assay
Chain of human glucagon receptor (hGCGR) (P47871 26-477): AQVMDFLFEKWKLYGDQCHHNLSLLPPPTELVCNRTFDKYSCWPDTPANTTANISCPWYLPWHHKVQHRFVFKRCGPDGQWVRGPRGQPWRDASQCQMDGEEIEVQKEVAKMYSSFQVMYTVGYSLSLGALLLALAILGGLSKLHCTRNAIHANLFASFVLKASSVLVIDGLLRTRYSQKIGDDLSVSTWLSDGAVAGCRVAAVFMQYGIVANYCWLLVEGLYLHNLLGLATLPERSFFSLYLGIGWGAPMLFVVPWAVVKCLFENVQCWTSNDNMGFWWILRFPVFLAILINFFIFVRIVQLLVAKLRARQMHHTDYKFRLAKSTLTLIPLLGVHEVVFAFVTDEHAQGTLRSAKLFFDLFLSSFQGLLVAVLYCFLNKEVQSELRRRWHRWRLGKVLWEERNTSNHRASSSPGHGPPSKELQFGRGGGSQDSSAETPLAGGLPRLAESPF

| hGLP-1R EC50 (pM) [1] [pM] | hGluc-R EC50 (pM) [2] [pM] | Binder |
| --- | --- | --- |
| 167 |  | B1 |
| 209 | 462 | B2 |
| 78 | 455 | B3 |
| 370 | 828 | B4 |
| 274 |  | B5 |
| 22.7 | 203 | B6 |
| 22.7 |  | B7 |
|  | 385 | H[Aib]QGTFTSDVSK[αMeF]LDTK([AEEA-AEEA-γGlu-γGlu-C20 diacid])RARDFVQWLLE[Aib]G-NH2 [Peptide 458] |
